Reference: publication PMC13170346
One block for each substance: values may come before it.

Legend:
[1] = biological target: T1, PomY624-682-mCh (gD domain) (Myxococcus xanthus (DK1622?)) (UniProt Q1DEM1); test: BLI; details: 5' biotin-TEG on both strands; BLI: 50 mM HEPES/NaOH pH 7.2, 50 mM KCl, 0.1 mM EDTA, 10% glycerol, 10 mM MgCl2, 1 mM β-mercaptoethanol, 0.05% Tween 20, 1 mM …; 100 nM DNA loaded; assay temp
T1 sequence: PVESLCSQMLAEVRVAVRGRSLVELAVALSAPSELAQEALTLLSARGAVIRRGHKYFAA

[2] = biological target: T2, His6-PomZ (Myxococcus xanthus (DK1622?)) (UniProt Q1DEM0); test: BLI; details: 5' biotin-TEG on both strands; BLI: 50 mM HEPES/NaOH pH 7.2, 50 mM KCl, 0.1 mM EDTA, 10% glycerol, 10 mM MgCl2, 1 mM β-mercaptoethanol, 0.05% Tween 20, 1 mM …; 100 nM DNA loaded; assay temp
T2 sequence: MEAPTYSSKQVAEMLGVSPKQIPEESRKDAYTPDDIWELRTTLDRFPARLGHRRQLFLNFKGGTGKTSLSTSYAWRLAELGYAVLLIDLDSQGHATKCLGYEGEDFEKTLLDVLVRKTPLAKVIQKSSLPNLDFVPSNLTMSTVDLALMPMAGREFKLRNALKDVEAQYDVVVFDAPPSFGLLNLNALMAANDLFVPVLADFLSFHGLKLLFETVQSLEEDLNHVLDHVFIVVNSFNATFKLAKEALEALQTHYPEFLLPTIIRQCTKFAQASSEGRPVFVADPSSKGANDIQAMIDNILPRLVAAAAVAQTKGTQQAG

[3] = biological target: PomZ (Myxococcus xanthus) (UniProt Q1DEM0)
[4] = tested on: His6-PomZ (Myxococcus xanthus (DK1622?)); test: BLI; details: 1 mM ATP, 10 mM MgCl2; 5' biotin-TEG on both strands; BLI: 50 mM HEPES/NaOH pH 7.2, 50 mM KCl, 0.1 mM EDTA, 10% glycerol, 10 mM MgCl2, 1 mM β-mercaptoethanol, 0.05% Tween 20, 1 mM ATP; 100 nM DNA loaded; assay …

Substance: GGGCCACCAAGCCCACCGCCGGCTCCAAGCGGCGGCGCCTGGAAGGCAAGAAGCGCACCTCCGAAAAAAAGGCCCTGAGAAACAGCAAATCCGGCTGGTGACCCAGGGTCCATCAGGACTCCAGTCACCCTGTCGCCGGACAGTCAGGGTGCGCCTAAAGTTTGCGAGCTCGCAGACGTTGCGAGGTCATCTGCTGCTCGCAGGGACCTCCTCCTGGGAATTTGCC (double strand) [cluster3 promoter PCR fragment]
binding [1]: no binding | Kd [2]: 24.3 µM

specific His6-PomZ ATPase activity (NADH-coupled assay, 4 µM His6-PomZ, with DNA) with purified Sumo-PomY^496-682-mCh, 2 to 10 µM (ATP h^-1 µM^-1) [3]: 11.6
Substance: His6-Sumo-PomY^496-682-mCh (domain or fragment)

Substance: cluster3 promoter PCR fragment
Kd [4]: 24.3 µM
